Earlier results in patent US10472401B2, “Peptides and combination of peptides for use in immunotherapy against ovarian cancer and other cancers” (immatics biotechnologies GmbH, priority 2015, dated 2019).

Tested on: ovarian cancer
Settings: clinical studies

B1: abagovomab (antibody, chains of the INN, looked up, V domains shown)
VH: QVKLQESGAELARPGASVKLSCKASGYTFTNYWMQWVKQRPGQGLDWIGAIYPGDGNTRYTHKFKGKATLTADKSSSTAYMQLSSLASEDSGVYYCARGEGNYAWFAYWGQGTTVTVSS
VL: DIELTQSPASLSASVGETVTITCQASENIYSYLAWHQQKQGKSPQLLVYNAKTLAGGVSSRFSGSGSGTHFSLKIKSLQPEDFGIYYCQHHYGILPTFGGGTKLEIK
notes: anti-CA-125 antibody
clinical results in ovarian cancer patients: promising results in phase II and III studies
